Measured values reported in patent EP4703382A1 (Kanglitai Biomedical (Qingdao) Co., Ltd., dated 2026).
Where “and” joins values, the source holds several entries; their conditions need not be identical. Equal entries are not always repeated. Where two headings read alike, the source gives them in different places.

Assays:
[1] = biological target: T1, human PD-L1 expressed on Raji cells (human, UniProt Q9NZQ7 19-290); experiment: flow cytometry on Raji cells expressing human PD-L1, anti-His FITC
T1 construct: whole, on cells; also called Raji-PDL1; PDL1 protein expressed on Raji cells
T1 sequence (Q9NZQ7 19-290): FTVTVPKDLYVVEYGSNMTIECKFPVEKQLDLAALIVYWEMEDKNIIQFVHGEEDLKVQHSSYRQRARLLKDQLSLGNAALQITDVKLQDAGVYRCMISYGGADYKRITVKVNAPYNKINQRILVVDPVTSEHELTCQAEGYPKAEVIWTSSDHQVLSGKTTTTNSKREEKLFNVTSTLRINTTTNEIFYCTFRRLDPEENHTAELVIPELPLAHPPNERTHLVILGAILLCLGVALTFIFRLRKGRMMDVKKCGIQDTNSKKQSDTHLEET

BSA = biological target: T2, BSA (UniProt P02769 25-607); experiment: ELISA, 200 ng/well coated, anti-His HRP
T2 construct: unrelated protein of the specificity ELISA
T2 sequence (P02769 25-607 limits assumed): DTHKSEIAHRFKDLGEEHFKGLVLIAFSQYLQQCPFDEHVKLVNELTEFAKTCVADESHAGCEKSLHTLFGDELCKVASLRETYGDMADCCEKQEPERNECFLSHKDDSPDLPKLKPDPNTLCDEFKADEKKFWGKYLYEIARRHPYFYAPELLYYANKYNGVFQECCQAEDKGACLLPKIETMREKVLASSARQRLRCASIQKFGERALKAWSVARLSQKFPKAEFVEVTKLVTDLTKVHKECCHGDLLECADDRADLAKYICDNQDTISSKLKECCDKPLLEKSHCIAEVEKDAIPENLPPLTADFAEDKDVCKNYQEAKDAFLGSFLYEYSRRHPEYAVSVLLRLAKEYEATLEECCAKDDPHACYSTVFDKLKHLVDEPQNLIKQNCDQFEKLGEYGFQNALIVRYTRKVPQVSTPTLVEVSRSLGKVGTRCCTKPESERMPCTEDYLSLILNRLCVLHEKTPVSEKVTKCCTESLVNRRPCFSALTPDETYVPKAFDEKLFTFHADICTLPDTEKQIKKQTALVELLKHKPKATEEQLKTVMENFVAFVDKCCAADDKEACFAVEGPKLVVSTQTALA

HAS = biological target: T3, HAS (UniProt P02768 25-609); experiment: ELISA, 200 ng/well coated, anti-His HRP
T3 construct: unrelated protein of the specificity ELISA; label read as HSA

[2] = biological target: T4, recombinant protein PD-L1-His (human, UniProt Q9NZQ7 19-238); experiment: competitive ELISA, PDL1-his coated, competitor PD1-Fc 50 µg/mL
T4 construct: also called PD-L1-his fusion protein; human PDL1-his protein
T4 sequence (Q9NZQ7 19-238 limits assumed): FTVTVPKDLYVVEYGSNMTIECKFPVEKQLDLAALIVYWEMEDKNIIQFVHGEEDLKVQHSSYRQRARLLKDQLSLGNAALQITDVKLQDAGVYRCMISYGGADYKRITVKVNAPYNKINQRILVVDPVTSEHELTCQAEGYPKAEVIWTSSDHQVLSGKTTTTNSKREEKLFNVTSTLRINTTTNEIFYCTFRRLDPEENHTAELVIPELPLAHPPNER

[3] = biological target: T1, human PD-L1 expressed on Raji cells; experiment: flow cytometry competition on Raji-PDL1 cells, competitor PD1-Fc
[4] = biological target: T5, human PDL1-Fc fusion protein (human); experiment: BLI (ForteBIO Octet QKe), PDL1-Fc loaded, analyte 100 nM
T5 construct: also called human PDL1-Fc recombinant protein
T5 sequence (chain, as listed by the source limits assumed): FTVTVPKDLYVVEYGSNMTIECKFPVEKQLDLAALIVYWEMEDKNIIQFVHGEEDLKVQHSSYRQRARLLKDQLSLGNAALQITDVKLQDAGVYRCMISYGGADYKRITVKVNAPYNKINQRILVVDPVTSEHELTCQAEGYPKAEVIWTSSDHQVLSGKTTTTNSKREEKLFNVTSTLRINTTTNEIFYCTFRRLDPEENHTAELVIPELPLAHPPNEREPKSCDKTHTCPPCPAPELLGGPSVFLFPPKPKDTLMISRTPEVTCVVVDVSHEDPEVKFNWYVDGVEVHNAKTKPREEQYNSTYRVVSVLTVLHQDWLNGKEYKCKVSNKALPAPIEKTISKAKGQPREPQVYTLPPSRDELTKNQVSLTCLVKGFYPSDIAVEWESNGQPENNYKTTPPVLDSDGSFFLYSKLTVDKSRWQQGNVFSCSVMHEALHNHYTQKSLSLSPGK

[5] = biological target: T4, recombinant protein PD-L1-His; experiment: competitive ELISA, PDL1-his coated, competitor PD1-Fc 50 µg/mL; remark: listed apart in the source
[6] = biological target: T1, human PD-L1 expressed on Raji cells; experiment: flow cytometry competition on Raji-PDL1 cells, competitor PD1-Fc; remark: listed apart in the source
[7] = biological target: T5, human PDL1-Fc fusion protein; experiment: ELISA, human PDL1-Fc coated 200 ng/well, anti-His HRP
[8] = biological target: T5, human PDL1-Fc fusion protein; experiment: BLI (ForteBIO Octet QKe), PDL1-Fc loaded, analyte 100 nM; remark: listed apart in the source
[9] = biological target: T5, human PDL1-Fc fusion protein; experiment: ELISA, human PDL1-Fc coated 200 ng/well, anti-His HRP; remark: listed apart in the source
[10] = biological target: T5, human PDL1-Fc fusion protein; experiment: as above; remark: listed apart in the source

Row | EC50 [1] | binding result (BSA) | binding result (HAS) | IC50 [2] | IC50 [3] | Kd [4] | koff [4] | kon [4] | IC50 [5] | IC50 [6] | EC50 [7] | Kd [8] | koff [8] | kon [8] | EC50 [9] | EC50 [10] | Binder
1 | 0.0606 µg/mL | no binding (tested: 0.2 µg) | no binding (tested: 0.2 µg) | 2.32 µg/mL | 0.477 µg/mL | 3.39 nM | 0.00563 s⁻¹ | 1.66e+06 M⁻¹ s⁻¹ | 5.8 µg/mL | 0.0626 µg/mL | 0.0421 µg/mL and 3.48 nM | 2.96 nM | 0.00532 s⁻¹ | 1.8e+06 M⁻¹ s⁻¹ | 0.00825 µg/mL | – | PDL1-1 (VHH, Alpaca nanobody expressed in E. coli, purified on HisTrap and detected with anti-His antibody; also called PD-L1-1 heavy chain single-domain antibody; P1) VHH: QVQLQESGGGLVQPGGSLTLSCAASGFTVSNSAVSWARQAPGKGLEWVSLIDSNRNTVYAQSVRGRFTISRDNVKNTVYLQMNSLKPEDTAVYYCAKGIWGSTLTGQGTQVTVSS
2 | 0.073 µg/mL | no binding (tested: 0.2 µg) | no binding (tested: 0.2 µg) | 1.31 µg/mL | – | – | – | – | – | 0.0406 µg/mL | – | – | – | – | 0.0128 µg/mL | – | PDL1-3 (VHH, Alpaca nanobody expressed in E. coli, His-tagged) VHH: QVQLQESGGGLVQPGGSLRLSCAGSGSIFRITPVAWYRQAPEKQRELVAVITDNGSTDYGDFVKGRFTISRDNAKNTVYLQMNSLKPEDTAVYYCNSRARPVRWTWGQGTQVTVSS
3 | – | no binding (tested: 0.2 µg) | no binding (tested: 0.2 µg) | – | – | – | – | – | – | – | – | – | – | – | – | 0.123 µg/mL | PDL1-14 (VHH, Alpaca nanobody expressed in E. coli, His-tagged) VHH: QVQLQESGGGLVQPGGSLRLSCAASGIISDINMVAWYRQAPGKQRELVAKIFRGGSTYYTDFVKGRFTISRENAKNTVYLQMNSLKPDDTAVYYCNARIQIRADRDYSDYWGQGTQVTVSS
4 | – | no binding (tested: 0.2 µg) | no binding (tested: 0.2 µg) | – | – | – | – | – | – | – | – | – | – | – | – | 0.0661 µg/mL | PDL1-13 (VHH, Alpaca nanobody expressed in E. coli, His-tagged) VHH: QVQLQESGGGLVQPGGSLRLSCAASGFTFSTSFVSWVRQAPGKGLEWVSRISPGGASTSYADSVKGRFTISRDNAENTLYLQMNSLKPEDTALYYCAREIYSGRFSGFDYWGQGTQVTVSS
